# IntAct's records for PubMed 29039417
# B1: BBSome complex member BBS5 (Homo sapiens), Q8N3I7 (parent)
# chain: MSVLDALWEDRDVRFDLSAQQMKTRPGEVLIDCLDSIEDTKGNNGDRGRLLVTNLRILWHSLALSRVNVSVGYNCILNITTRTANSKLRGQTEALYILTKCNSTRFEFIFTNLVPGSPRLFTSVMAVHRAYETSKMYRDFKLRSALIQNKQLRLLPQEHVYDKINGVWNLSSDQGNLGTFFITNVRIVWHANMNDSFNVSIPYLQIRSIKIRDSKFGLALVIESSQQSGGYVLGFKIDPVEKLQESVKEINSLHKVYSASPIFGVDYEMEEKPQPLEALTVEQIQDDVEIDSDGHTDAFVAYFADGNKQQDREPVFSEELGLAIEKLKDGFTLQGLWEVMS
# partner: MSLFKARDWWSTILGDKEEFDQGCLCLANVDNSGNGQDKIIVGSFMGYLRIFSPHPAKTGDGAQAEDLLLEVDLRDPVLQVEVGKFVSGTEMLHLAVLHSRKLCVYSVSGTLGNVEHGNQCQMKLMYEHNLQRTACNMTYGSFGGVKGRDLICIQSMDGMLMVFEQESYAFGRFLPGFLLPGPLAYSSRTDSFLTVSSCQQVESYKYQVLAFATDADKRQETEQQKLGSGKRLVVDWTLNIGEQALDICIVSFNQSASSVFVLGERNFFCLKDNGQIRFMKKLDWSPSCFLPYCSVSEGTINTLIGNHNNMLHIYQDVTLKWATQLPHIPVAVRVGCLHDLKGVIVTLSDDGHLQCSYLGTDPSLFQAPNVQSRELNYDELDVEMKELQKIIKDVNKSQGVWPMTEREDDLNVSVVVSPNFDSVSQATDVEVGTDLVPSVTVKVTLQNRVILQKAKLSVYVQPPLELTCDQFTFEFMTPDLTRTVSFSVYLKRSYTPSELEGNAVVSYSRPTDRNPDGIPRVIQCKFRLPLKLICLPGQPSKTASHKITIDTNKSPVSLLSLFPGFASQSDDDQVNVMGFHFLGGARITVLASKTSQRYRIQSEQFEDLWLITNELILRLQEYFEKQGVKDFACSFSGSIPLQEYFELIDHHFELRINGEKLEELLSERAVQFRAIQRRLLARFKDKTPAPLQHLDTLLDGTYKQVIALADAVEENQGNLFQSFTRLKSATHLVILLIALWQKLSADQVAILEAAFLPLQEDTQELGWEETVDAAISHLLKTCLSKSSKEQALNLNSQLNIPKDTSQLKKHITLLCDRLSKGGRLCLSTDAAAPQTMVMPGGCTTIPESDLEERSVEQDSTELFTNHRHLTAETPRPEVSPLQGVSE
# Variants of: B1
# Conditions: with pthb1_human BBS9, Q3SYG4
row,Variant,effect of a mutation on the interaction
1,MSVLDALWEDRDVRFDLSAQQMKTRPGEVLIDCLDSIEDTKGNNGDRGRLLVTNLRILWHSLALSRVNVSVGYNCILNITTRTANSKLRGQTEALYILTKCNSTRFEFIFTNLVPGSPRLFTSVMAVHRAYETSKMYRDFKLRSALIQNKQLRLLPQEHVYDKINGVWNLSSDQGNLGTFFITNVRIVWHANMNDSFNVSIPYLQIRSIKIRDSKFGLALVIESSQQSGGYVLGFKIDPVEKLQESVKEINSLHKVYSASPAFGVDYEMEEKPQPLEALTVEQIQDDVEIDSDGHTDAFVAYFADGNKQQDREPVFSEELGLAIEKLKDGFTLQGLWEVMS [I262A],with no effect
2,MSVLDALWEDRDVRFDLSAQQMKTRPGEVLIDCLDSIEDTKGNNGDRGRLLVTNLRILWHSLALSRVNVSVGYNCILNITTRTANSKLRGQTEALYILTKCNSTRFEFIFTNLVPGSPRLFTSVMAVHRAYETSKMYRDFKLRSALIQNKQLRLLPQEHVYDKINGVWNLSSDQGNLGTFFITNVRIVWHANMNDSFNVSIPYLQIRSIKIRDSKFGLALVIESSQQSGGYVLGFKIDPVEKLQESVKEIESLHKVYSASPIFGVDYEMEEKPQPLEALTVEQIQDDVEIDSDGHTDAFVAYFADGNKQQDREPVFSEELGLAIEKLKDGFTLQGLWEVMS [N251E],with no effect
3,MSVLDALWEDRDVRFDLSAQQMKTRPGEVLIDCLDSIEDTKGNNGDRGRLLVTNLRILWHSLALSRVNVSVGYNCILNITTRTKNSKLRGQTEALYILTKCNSTRFEFIFTNLVPGSPRLFTSVMAVHRAYETSKMYRDFKLRSALIQNKQLRLLPQEHVYDKINGVWNLSSDQGNLGTFFITNVRIVWHANMNDSFNVSIPYLQIRSIKIRDSKFGLALVIESSQQSGGYVLGFKIDPVEKLQESVKEINSLHKVYSASPIFGVDYEMEEKPQPLEALTVEQIQDDVEIDSDGHTDAFVAYFADGNKQQDREPVFSEELGLAIEKLKDGFTLQGLWEVMS [A84K],with no effect
4,MSVLDALWEDRDVRFDLSAQQMKTRPGEVLIDCLDSIEATKGNNGDRGRLLVTNLRILWHSLALSRVNVSVGYNCILNITTRTANSKLRGQTEALYILTKCNSTRFEFIFTNLVPGSPRLFTSVMAVHRAYETSKMYRDFKLRSALIQNKQLRLLPQEHVYDKINGVWNLSSDQGNLGTFFITNVRIVWHANMNDSFNVSIPYLQIRSIKIRDSKFGLALVIESSQQSGGYVLGFKIDPVEKLQESVKEINSLHKVYSASPIFGVDYEMEEKPQPLEALTVEQIQDDVEIDSDGHTDAFVAYFADGNKQQDREPVFSEELGLAIEKLKDGFTLQGLWEVMS [D39A],with no effect
5,MSVLDALWEDRDVRFDLSAQQMKTRPGEVLIDCLDSIEDTKGNNGDRGRLLVTNLRILWHSLALSRVNVSVGYNCILNITTRTANSKLRGQTEALYILTKCNSTRFEFIFTNLVPGSPRLFTSVMAVHRAYETSKMYRDFKLRSALIQNKQLRLLPQEHVYDKINGVWNLSSDQGNLGTFFITNVRIVWHANMNDSFNVSIPYLQIRSIKIRDSKFGLALVIESSAQSGGYVLGFKIDPVEKLQESVKEINSLHKVYSASPIFGVDYEMEEKPQPLEALTVEQIQDDVEIDSDGHTDAFVAYFADGNKQQDREPVFSEELGLAIEKLKDGFTLQGLWEVMS [Q226A],with no effect
6,MSVLDALWEDRDVRFDLSAQQMKTRPGEVLIDCLDSIEDTKGNNGDRGRLLVTNLRILWHSLALSRVNVSVGYNCILNITTRTANSKLRGQTEALYILTKCNSTRFEFIFTNLVPGSPRLFTSVMAVHRAYKTSKMYRDFKLRSALIQNKQLRLLPQEHVYDKINGVWNLSSDQGNLGTFFITNVRIVWHANMNDSFNVSIPYLQIRSIKIRDSKFGLALVIESSQQSGGYVLGFKIDPVEKLQESVKEINSLHKVYSASPIFGVDYEMEEKPQPLEALTVEQIQDDVEIDSDGHTDAFVAYFADGNKQQDREPVFSEELGLAIEKLKDGFTLQGLWEVMS [E132K],with no effect
7,MSVLDALWEDRDVRFDLSAQQMKTRPGEVLIDCLDSIEDTKGNNGDRGRLLVTNLRILWHSLALSRVNVSVGYNCILNITTRTANSKLRGQTEALYILTKCNSTRFEFIFTNLVPGSPRLFTSVMAVHRAYETSKMYRDFKLRSALIQNKQLRLLPQEHVYDKINGVWNLSSDQGNLGTFFITNVRIVWHANMNDSFNVSIPYLQIRSEKIRDSKFGLALVIESSQQSGGYVLGFKIDPVEKLQESVKEINSLHKVYSASPIFGVDYEMEEKPQPLEALTVEQIQDDVEIDSDGHTDAFVAYFADGNKQQDREPVFSEELGLAIEKLKDGFTLQGLWEVMS [I209E],with no effect
8,MSVLDALWEDRDVRFDLSAQQMKTRPGEVLIDCLDSIEDTKGNNGDRGRLLVTNLRILWHSLALSRVNVSVGYNCILNITTRTANSKLRGQTEALYILTKCNSTRFEFIFTNLVPGSPRLFTSVMAVHRAYETSKMYRDFKLRSALIQNKQLRLLPEEHVYDKINGVWNLSSDQGNLGTFFITNVRIVWHANMNDSFNVSIPYLQIRSIKIRDSKFGLALVIESSQQSGGYVLGFKIDPVEKLQESVKEINSLHKVYSASPIFGVDYEMEEKPQPLEALTVEQIQDDVEIDSDGHTDAFVAYFADGNKQQDREPVFSEELGLAIEKLKDGFTLQGLWEVMS [Q157E],with no effect
9,MSVLDALWEDRDVRFDLSAQQMKTRPGEVLIDCLDSIEDTKGNNGDRGRLLVTNLRILWHSLALSRVNVSVGYNCILNITTRTANSKLRGQTEALYILTKCNSTRFEFIFTNLVPGSPRLFTSVMAVHRAYETSKMYRDFKLRSALIQNKQLRLLPQKHVYDKINGVWNLSSDQGNLGTFFITNVRIVWHANMNDSFNVSIPYLQIRSIKIRDSKFGLALVIESSQQSGGYVLGFKIDPVEKLQESVKEINSLHKVYSASPIFGVDYEMEEKPQPLEALTVEQIQDDVEIDSDGHTDAFVAYFADGNKQQDREPVFSEELGLAIEKLKDGFTLQGLWEVMS [E158K],with no effect
